Data as given in the supplement of paper PMC9732359.
± gives the uncertainty stated by the source.

Assay: protein stability index of a GFP-peptide fusion (yeast GPS) (PSI 1-4); higher = more stable; sorted into four equal gates, so the index is relative within each strain
In short: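 Tiled 17-residue peptides from yeast proteins were fused downstream of GFP on a plasmid that also expresses Cherry, and the pooled library was carried in yeast. Mid-log cultures grown in leucine-free medium were sorted into four equal gates by GFP/Cherry fluorescence ratio. Plasmids from each gate were PCR-amplified and Illumina-sequenced, and reads were assigned to strains by barcodes. Each peptide's protein stability index is the sum, over gates, of the gate's read frequency multiplied by its gate number.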

In the case of QVPSSLIVRAKNHTHNL [RRP4], the protein stability index (doa10∆) is reported as 2.56 ± 0.076, the protein stability index (pdr5∆) is reported as 2.89 ± 0.06 and the protein stability index (san1∆) is reported as 2.67 ± 0.072. For the same sequence, the protein stability index (ubr1∆) was 2.87 ± 0.055.
VAEIEKTADVKRQYVKQ [RPL20A] gave a protein stability index (doa10∆) of 3.33 ± 0.13, a protein stability index (pdr5∆) of 3.2 ± 0.088 and a protein stability index (san1∆) of 2.94 ± 0.13. It also gave a protein stability index (ubr1∆) of 3.1 ± 0.079.
In the case of FASLRVLPDADVKLLHS [YJL039C/NUP192], the protein stability index (pdr5∆) is reported as 2.11 ± 0.1, the protein stability index (san1∆) is reported as 1.54 ± 0.2 and the protein stability index (ubr1∆) is reported as 2.14 ± 0.11.
FLIDVLKIYAQIEKKEI [YCG1] gave a protein stability index (doa10∆) of 1.26 ± 0.07, a protein stability index (pdr5∆) of 1.93 ± 0.063 and a protein stability index (san1∆) of 1.21 ± 0.11. It also gave a protein stability index (ubr1∆) of 1.4 ± 0.054.
For VLKKPNRAMEYDALLSI [RET1], the protein stability index (pdr5∆) was 2.33 ± 0.19 and the protein stability index (san1∆) was 1.69 ± 0.28.
Work on KADAQREKALNEEAEAR [RPL19A] yielded a protein stability index (doa10∆) of 3.22 ± 0.083, a protein stability index (pdr5∆) of 3.45 ± 0.2 and a protein stability index (san1∆) of 3.23 ± 0.081. The protein stability index (ubr1∆) was 3.33 ± 0.098.
In the case of SQLQEQFNKILPEPTEG [FAS1], the protein stability index (doa10∆) is reported as 2.82 ± 0.1, the protein stability index (pdr5∆) is reported as 3.17 ± 0.12 and the protein stability index (san1∆) is reported as 2.64 ± 0.076. For the same sequence, the protein stability index (ubr1∆) was 2.71 ± 0.097.
With LEQEYRLILLLNHRNKN [RMP1] the protein stability index (doa10∆) was 1.28 ± 0.045, the protein stability index (pdr5∆) was 1.18 ± 0.05 and the protein stability index (san1∆) was 1.19 ± 0.084. For the same sequence, the protein stability index (ubr1∆) was 1.13 ± 0.046.
With RKQIQLLKKIIFEKELM [SRB4] the protein stability index (doa10∆) was 1.93 ± 0.051, the protein stability index (pdr5∆) was 2.14 ± 0.047 and the protein stability index (san1∆) was 1.86 ± 0.071. It also gave a protein stability index (ubr1∆) of 2.03 ± 0.034.
Sequence ERNAFLSDYEVLKFLTD [RPC17] has a protein stability index (doa10∆) of 3.44 ± 0.096, a protein stability index (pdr5∆) of 3.04 ± 0.087 and a protein stability index (san1∆) of 3.28 ± 0.05. For the same sequence, the protein stability index (ubr1∆) was 3.05 ± 0.086.
With LQLNEAEEFVAGVSHGT [SMX3] the protein stability index (doa10∆) was 3.36 ± 0.25, the protein stability index (pdr5∆) was 2.96 ± 0.23 and the protein stability index (san1∆) was 3.01 ± 0.28. It also gave a protein stability index (ubr1∆) of 3.41 ± 0.11.
Work on YQNQFVEFCRNINSTDK [YML103C/NUP188] yielded a protein stability index (doa10∆) of 3.04 ± 0.11, a protein stability index (pdr5∆) of 2.76 ± 0.088 and a protein stability index (san1∆) of 2.6 ± 0.12. The protein stability index (ubr1∆) was 2.92 ± 0.049.
With NRGNKKRHRSSYYDNDL [YML031W/NDC1] the protein stability index (doa10∆) was 3.02 ± 0.13, the protein stability index (pdr5∆) was 3.29 ± 0.095 and the protein stability index (san1∆) was 3.24 ± 0.072. For the same sequence, the protein stability index (ubr1∆) was 3 ± 0.11.
TISILAAPSGNYKQLTL [RRP43] gave a protein stability index (doa10∆) of 1.77 ± 0.035, a protein stability index (pdr5∆) of 1.94 ± 0.032 and a protein stability index (san1∆) of 1.92 ± 0.058. For the same sequence, the protein stability index (ubr1∆) was 1.89 ± 0.033.
Work on MQANTNALRRNLLKDEG [SSN3] yielded a protein stability index (doa10∆) of 2.94 ± 0.11, a protein stability index (pdr5∆) of 3.1 ± 0.25 and a protein stability index (san1∆) of 2.98 ± 0.21. It also gave a protein stability index (ubr1∆) of 3.2 ± 0.27.
Work on SYVAVLGMGKAVEKTLA [POP7] yielded a protein stability index (doa10∆) of 1.75 ± 0.13, a protein stability index (pdr5∆) of 2.17 ± 0.081 and a protein stability index (san1∆) of 1.82 ± 0.11. The protein stability index (ubr1∆) was 1.61 ± 0.086.
DKIPLNYAMTRNILHNT [SRB5] gave a protein stability index (doa10∆) of 1.82 ± 0.057, a protein stability index (pdr5∆) of 2.34 ± 0.057 and a protein stability index (san1∆) of 1.83 ± 0.081. For the same sequence, the protein stability index (ubr1∆) was 1.93 ± 0.035.
For EQILQWVTEVLGNDIPH [BRR2], the protein stability index (doa10∆) was 3.07 ± 0.07, the protein stability index (pdr5∆) was 3.31 ± 0.063 and the protein stability index (san1∆) was 2.88 ± 0.047. The protein stability index (ubr1∆) was 3.19 ± 0.058.
QRRSWRQYVGQLAPSSV [DIS3] showed a protein stability index (doa10∆) of 2.06 ± 0.077, a protein stability index (pdr5∆) of 2.45 ± 0.18 and a protein stability index (ubr1∆) of 2.36 ± 0.078.
RSRNGGATKIVREHYLR [DIS3] showed a protein stability index (doa10∆) of 3.21 ± 0.073, a protein stability index (pdr5∆) of 3.36 ± 0.083 and a protein stability index (san1∆) of 3.36 ± 0.081. The protein stability index (ubr1∆) was 3.2 ± 0.099.
For PFTASQSNINTNAPLRT [YIL149C/MLP2], the protein stability index (doa10∆) was 2.37 ± 0.12, the protein stability index (pdr5∆) was 2.49 ± 0.089 and the protein stability index (san1∆) was 2.11 ± 0.075. The protein stability index (ubr1∆) was 2.08 ± 0.053.
With ELTDNMSDFVPIDAGLN [MCD1] the protein stability index (doa10∆) was 3.12 ± 0.11, the protein stability index (pdr5∆) was 2.99 ± 0.1 and the protein stability index (san1∆) was 2.74 ± 0.081. The protein stability index (ubr1∆) was 3.21 ± 0.12.
AARVDIGQIIFSVRTKD [RPL10] showed a protein stability index (doa10∆) of 1.74 ± 0.078, a protein stability index (pdr5∆) of 1.67 ± 0.081 and a protein stability index (san1∆) of 2.78 ± 0.12. The protein stability index (ubr1∆) was 2.04 ± 0.057.
In the case of NDICSVENYETSSAFFY [SIR4], the protein stability index (doa10∆) is reported as 2.82 ± 0.046, the protein stability index (pdr5∆) is reported as 2.88 ± 0.051 and the protein stability index (san1∆) is reported as 2.64 ± 0.05. For the same sequence, the protein stability index (ubr1∆) was 2.77 ± 0.053.
For SKSAPSKKISNTAAALV [YAR002W/NUP60], the protein stability index (doa10∆) was 3.1 ± 0.067, the protein stability index (pdr5∆) was 2.97 ± 0.068 and the protein stability index (san1∆) was 3.12 ± 0.041. For the same sequence, the protein stability index (ubr1∆) was 3.14 ± 0.048.
FVIHIQEKNFQTGIFVY [RPB5] gave a protein stability index (doa10∆) of 1.98 ± 0.062, a protein stability index (pdr5∆) of 1.58 ± 0.05 and a protein stability index (san1∆) of 1.54 ± 0.16. It also gave a protein stability index (ubr1∆) of 1.88 ± 0.081.
